Patent US20260132464A1, “CIRCULAR RNAS FOR THE DIAGNOSIS AND TREATMENT OF BRAIN DISORDERS” (UNM Rainforest Innovations, priority 2018, published 2026)

B1: circHomer1a: circRNA derived from exons 2-5 of Homer protein homolog 1 (HOMER1) (nucleic acid, listed as Homo sapiens)
chain: GGAACAACCTATCTTCAGCACTCGAGCTCATGTCTTCCAAATTGACCCAAACACAAAGAAGAACTGGGTACCCACCAGCAAGCATGCAGTTACTGTGTCTTATTTCTATGACAGCACAAGAAATGTGTATAGGATAATCAGTTTAGATGGCTCAAAGGCAATAATAAATAGTACCATCACCCCAAACATGACATTTACTAAAACATCTCAGAAGTTTGGCCAGTGGGCTGATAGCCGGGCAAACACCGTTTATGGATTGGGATTCTCCTCTGAGCATCATCTTTCGAAATTTGCAGAAAAGTTTCAGGAATTTAAAGAAGCTGCTCGACTAGCAAAGGAAAAATCACAAGAGAAGATGGAACTTACCAGTACACCTTCACAGGAATCCGCAGGCGGGGATCTTCAGTCTCCTTTAACACCGGAAAGTATCAACGGGACAGATGATGAAAGAACACCTGATGTGACACAGAACTCAGAGCCAAGGGCTGAACCAACTCAGAATGCATTGCCATTTTCACATAG
modifications: circular RNA
B2: circHomer1b: circRNA generated from the backsplicing of exons 2 and 3 of HOMER1 pre-mRNA (nucleic acid, listed as Homo sapiens)
chain: GGAACAACCTATCTTCAGCACTCGAGCTCATGTCTTCCAAATTGACCCAAACACAAAGAAGAACTGGGTACCCACCAGCAAGCATGCAGTTACTGTGTCTTATTTCTATGACAGCACAAGAAATGTGTATAGGATAATCAGTTTAGATGGCTCAAAGGCAATAATAAATAGTACCATCACCCCAAACATGACATTTACTAAAACATCTCAGAAGTTTGGCCAGTGGGCTGATAGCCGGGCAAACACCGTTTATGGATTGGGATTCTCCTCTGAGCATCATCTTTCGAAA
modifications: circular RNA
notes: circRNA generated from the backsplicing of exons 2 and 3 of HOMER1 pre-mRNA
B3: circADAM22: circRNA derived from the epilepsy-related gene ADAM metallopeptidase domain 22 (ADAM22) (nucleic acid, listed as Homo sapiens)
chain: GTGAATGTAAATGCGAGGACACGTGGTCCGGGTGCATAATGGGAGACACTGGCTATTATCTTCCTAAAAAGTTCACCCAGTGTAATATTGAAGAGTATCATGACTTCCTGAATAGTGGAGGTGGTGCCTGCCTTTTCAACAAACCTTCTAAGCTTCTTGATCCTCCTGAGTGTGGCAATGGCTTCATTGAAACTGGAGAGGAGTGTGATTGTGGAACCCCGGCCGAATGTGTCCTTGAAGGAGCAGAGTGTTGTAAGAAATGCACCTTGACTCAAGACTCTCAATGCAGTGACGGTCTTTGCTGTAAAAAGTGCAAGTTTCAGCCTATGGGCACTGTGTGCCGAGAAGCAGTAAATGATTGTGATATTCGTGAAACGTGCTCAGGAAATTCAAGCCAGTGTGCCCCTAATATTCATAAAATGGATGGATATTCATGTGATGGTGTTCAGGGAATTTGCTTTGGAGGAAGATGCAAAACCAGAGATAGACAATGCAAATACATTTGGGGGCAAAAGGTGACAGCATCAGACAAATATTGCTATGAGAAACTGAATATTGAAGGGACGGAGAAGGGTAACTGTGGGAAAGACAAAGACACATGGATACAGTGCAACAAACGGGATGTGCTTTGTGGTTACCTTTTGTGTACCAATATTGGCAATATCCCAAGGCTTGGAGAACTCGATGGTGAAATCACATCTACTTTAGTTGTGCAGCAAGGAAGAACATTAAACTGCAGTGGTGGGCATGTTAAGCTTGAAGAAGATGTAGATCTTGGCTATGTGGAAGATGGGACACCTTGTGGTCCCCAAATGATGTGCTTAGAACACAGGTGTCTTCCTGTGGCTTCTTTCAACTTTAGTACTTGCTTGAGCAGTAAAGAAGGCACTATTTGCTCAGGAAATGGAGTTTGCAGTAATGAGCTGAAGTGTGTGTGTAACAGACACTGGATAGGTTCTGATTGCAACACTTACTTCCCTCACAATGATGATGCAAAGACTGGTATCACTCTGTCTGGCAATGGTGTTGCTGGCACCAATATCATAATAGGCATAATTGCTGGCACCATTTTAGTGCTGGCCCTCATATTAGGAATAACTGCGTGGGGTTATAA
modifications: circular RNA
B4: circCUL4A: circRNA biomarker for brain disorders, increased in OFC of SCZ patients (nucleic acid, listed as Homo sapiens)
chain: GTCACGTCCCGTGTGGCTGTGGAGATCTCTGTGTGACTATGGAGGTTTCATCCATGTGGCTCTGAAGGTCTCTGTGTGACTATGGAGGTCGCGTCCCATGTGGCTGTGGAGGTCGCTGTGTGGCTATGGAG
modifications: circular RNA
notes: circRNA biomarker for brain disorders, increased in OFC of SCZ patients

Columns and labels:
circHomer1a = circHomer1a expression (circRNA qRT-PCR) after 2 day drug treatment of stem cell-derived mixed neuronal and astrocyte cultures; format: cell-based; conditions: 2 days treatment, human 6-9 month differentiated stem cell-derived mixed neuronal and astrocyte cultures
Description: FIG. 6A is a representative bright-field image from 6-9 month differentiated human embryonic stem cell (hESC)-derived mature mixed neuronal and glial cultures.
FIG. 6B is an immunofluorescence image showing the presence of neurons (MAP2, red) and astrocytes (GFAP, green). Scale bar=100 μm.
05, two-tailed one sample t-test. The number of replicates is also shown within the graph.

[1] = system: stem cell-derived (iPSC) neuronal cultures from patients with SCZ and BD; experiment: circHomer1a levels in iPSC-derived neuronal cultures from SCZ and BD patients vs Control; format: cell-based, human
Description: 05, two-tailed one sample t-test relative to the Control of the same developmental time-point.
05, two-tailed one sample t-test relative to the Control of the same developmental time-point. In all graphs individual samples are shown.

[2] = system: DLPFC of subjects with SCZ and BD; experiment: circRNA-specific qRT-PCR in postmortem DLPFC of SCZ, BD and Control subjects; set-up: species or system human
Description: In all graphs individual SCZ, BD, and Control sample values are shown.
A schematic of the exonic nature of circHomer1b is also shown.
(§1) Given that harsh RNAseR treatment can partially digest some circRNAs together with all linear RNAs, thus making circRNA screening semi-quantitative, the present disclosure also provides novel validated and sequence-verified circRNA-specific qRT-PCR primers aimed at the unique circRNA-specific splice junction, which enable the measurement of a subset of dysregulated circRNAs in non RNaseR-treated samples. These primers are shown in FIGS. 3C, 8B, and 14A, B (See also SEQ ID NOS. 2, 3, 5, 6, 8, 9, 11 or 12).

[3] = system: orbitofrontal cortex (OFC) of subjects with Bipolar Disorder; experiment: circRNA microarray profiling, OFC of subjects with Bipolar Disorder vs unaffected Controls (Table 3); set-up: species or system human
Description: (§2) Example of circRNA array raw image is also shown.
(§3) The circRNAs in Tables 3 and 4 were identified by profiling circRNA expression in OFC RNA samples from 34 SCZ, 32 BD, and 34 unaffected control subjects from the Stanley Medical Research Institute.
Additional methods for identifying these brain disorder-associated circRNA biomarkers are discussed below.

[4] = system: OFC of subjects with SCZ and BD; experiment: circRNA-specific qRT-PCR in postmortem OFC of SCZ, BD and Control subjects; set-up: species or system human; conditions: for circRNA expression in OFC, BD patients vs unaffected Controls / circRNA expression in OFC, SCZ patients vs unaffected Controls: qRT-PCR, postmortem OFC
Description: 05, based on general linear model correcting for RIN, PMI, RI, and brain pH. A schematic showing the multi-exonic nature of circADAM22 is also shown.
In FIGS. 4A-C, E-F **p<. 01, based on a Univariate General Linear Model corrected for RIN, PMI, RI, and brain pH.
A schematic of the exonic nature of circHomer1b is also shown. In all graphs individual SCZ, BD, and Control sample values are shown. ***p<. 001, based on general linear model correcting for RIN, PMI, RI, and brain pH.
as §1

[5] = system: OFC of subjects with Schizophrenia; experiment: circRNA microarray profiling, OFC of subjects with Schizophrenia vs unaffected controls (Table 4); set-up: species or system human; conditions: relative to Control fold change of circRNA expression
Description: as §2
FIG. 1C is a volcano plot showing differential circRNA expression in SCZ patients vs unaffected Controls (x-axis=relative to control log 2 fold changes; y-axis: negative log 10 of the p-values). Vertical lines correspond to >1.25-fold changes, and the horizontal line represents p<. 05. Example of validated circRNAs are shown in the graph.
as §3
All circRNA array experiments used for Tables 1-4 were performed by employing a commercially available circRNA microarray platform that uses 13,617 circRNA splice junction probes designed based on previous RNA sequencing and circRNA annotation data (Service sold by Arraystar Inc.). Analysis of circRNA changes in postmortem brain samples from the OFC of subjects with BD uncovered a subset of differentially expressed circRNAs (Table 3) a subset of which stemmed from genes related to synaptic transmission, neuronal development and migration, and short term memory (FIGS. 1A-C, 2A-B), whereas altered circRNAs in SCZ (Table 4 and FIGS. 1A-C, 2A-B) were associated, among others, with the mitogen-activated protein kinase (MAPK/ERK) and protein kinase B (PKB/AKT) pathways. […]

Row | Molecule | circHomer1a expression relative to Vehicle (circHomer1a) | circRNA expression in DLPFC, BD patients vs unaffected Controls [2] | circRNA expression in OFC, BD patients vs unaffected Controls [4] | circRNA expression in OFC, SCZ patients vs unaffected Controls [4] | other results
1 | O=C(CCCN1CCC(O)(c2ccc(Cl)cc2)CC1)c1ccc(F)cc1 [Haloperidol] | lack of effect | – | – | – | –
2 | CCCC(CCC)C(=O)O [Valproic acid, valproic acid] | increase | – | – | – | –
3 | B1 | – | reduced | reduced | reduced | circHomer1a expression in iPSC neuronal cultures, patients vs Control [1]: reduced; circRNA expression in DLPFC, SCZ patients vs unaffected Controls ([2]; SCZ): reduced; Fold BD OFC ([3]; circRNA expression, OFC of subjects with Bipolar Disorder vs unaffected Controls): 0.6440; correlation of expression with duration of illness ([4]; SCZ and BD patients (FIGS. 4H, 5D; OFC and DLPFC)): positively correlated; correlation of expression with age of onset of disease ([4]; SCZ patients (FIGS. 4G, 5C; OFC and DLPFC)): positively correlated
4 | B2 | – | not | reduced | reduced | –
5 | B3 | – | – | decreased expression | unchanged | Fold BD OFC ([3]; circRNA expression in OFC, Bipolar Disorder vs unaffected Controls): 0.5247
6 | B4 | – | – | unchanged | increased expression | Fold SCZ OFC [5]: 1.4626
